Values belong to the binder of their own block, whether it stands above or below them.
How the values were obtained:
[1] = molecular target: recombinant biotinylated human Fc gamma receptor IIIa (FcγRIIIa/CD16) (human) (UniProt P08637); test: AlphaLISA competition; test molecule titrated against human IgG Fc acceptor beads for biotinylated FcγRIIIa
[2] = molecular target: Fc gamma receptor IIb (FcgRIIb, CD32b) (human) (UniProt P31994); test: AlphaLISA competition or analogous assay for FcγRIIb (not described)
Sequence of Fc gamma receptor IIb (FcgRIIb, CD32b) (human) (P31994 46-217 limits assumed): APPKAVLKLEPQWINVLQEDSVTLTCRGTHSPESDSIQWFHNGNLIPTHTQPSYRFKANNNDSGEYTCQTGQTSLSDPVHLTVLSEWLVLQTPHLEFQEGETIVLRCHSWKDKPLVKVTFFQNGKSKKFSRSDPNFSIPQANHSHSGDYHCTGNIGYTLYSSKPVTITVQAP

[3] = molecular target: recombinant biotinylated human Fc gamma receptor I (FcγRI/CD64) (human) (UniProt P12314); test: AlphaLISA competition; test molecule titrated against human IgG Fc acceptor beads for biotinylated FcγRI
Sequence of recombinant biotinylated human Fc gamma receptor I (FcγRI/CD64) (human) (P12314 16-288 limits assumed): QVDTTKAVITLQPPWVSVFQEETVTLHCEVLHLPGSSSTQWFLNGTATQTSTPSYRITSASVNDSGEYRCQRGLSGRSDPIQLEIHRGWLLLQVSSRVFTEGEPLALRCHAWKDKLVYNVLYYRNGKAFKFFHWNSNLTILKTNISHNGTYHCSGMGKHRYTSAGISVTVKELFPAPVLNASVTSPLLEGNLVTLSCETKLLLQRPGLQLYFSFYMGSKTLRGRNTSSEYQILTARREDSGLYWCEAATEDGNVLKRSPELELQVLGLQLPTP

[4] = molecular target: recombinant biotinylated human neonatal Fc receptor (FcRn) (human) (UniProt P55899); test: AlphaLISA competition at pH 6; test molecule titrated against human IgG acceptor beads for biotinylated human FcRn
[5] = molecular target: recombinant biotinylated human Fc gamma receptor IIa (FcγRIIa/CD32a 167H) (human) (UniProt P12318); test: AlphaLISA competition; test molecule titrated against human IgG Fc acceptor beads for biotinylated FcγRIIa
Sequence of recombinant biotinylated human Fc gamma receptor IIa (FcγRIIa/CD32a 167H) (human) (P12318 36-218 limits assumed): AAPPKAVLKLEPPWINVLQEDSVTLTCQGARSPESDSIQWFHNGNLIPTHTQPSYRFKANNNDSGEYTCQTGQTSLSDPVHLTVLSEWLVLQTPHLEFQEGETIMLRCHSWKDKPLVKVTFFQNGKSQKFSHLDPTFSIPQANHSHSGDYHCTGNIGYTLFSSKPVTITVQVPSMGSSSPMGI

Sequence of recombinant biotinylated human Fc gamma receptor IIIa (FcγRIIIa/CD16) (human) (P08637 17-208 limits assumed): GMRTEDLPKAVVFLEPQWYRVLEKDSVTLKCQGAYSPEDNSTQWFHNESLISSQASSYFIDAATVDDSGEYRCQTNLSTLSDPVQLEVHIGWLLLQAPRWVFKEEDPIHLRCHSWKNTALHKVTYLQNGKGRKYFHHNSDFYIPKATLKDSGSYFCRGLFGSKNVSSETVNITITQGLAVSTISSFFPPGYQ

Kd [1]: 481 nM
Kd [2]: 4710 nM
Kd [3]: 3.81 nM
Kd [4]: 25.3 nM
Kd [5]: 1140 nM
B1: CMP-016 (LZM-009 conjugated to CMP-003, DAR 1, K248) (antibody)
VH: QVQLVQSGAEVKKPGASVKVSCKASGYTFTSYYMYWVRQAPGQGLEWMGGVNPSNGGTNFNEKFKSRVTITADKSTSTAYMELSSLRSEDTAVYYCARRDYRYDMGFDYWGQGTTVTVSS
VL: EIVLTQSPATLSLSPGERATISCRASKGVSTSGYSYLHWYQQKPGQAPRLLIYLASYLESGVPARFSGSGSGTDFTLTISSLEPEDFATYYCQHSRELPLTFGTGTKVEIK
chain: APTSSSTKKTQLQLEHLLLDLQXILNGINNYKNPKLTRXLXYKFYXPKKATELKHLQCLEEELKPLEEVLXLAQSKNFHLRPRDLISNINVIVLELKGSETTFXCEYADETATIVEFLNRWITFSQSIISTLT
modifications: not fully specified; Nle at 23, 39, 46 and Hse at 41, 71, 104 (as in SEQ ID NO: 3); ~0.5 kDa PEG on Y45; 0.5 kDa PEG on F42Y whose azide end is joined to the DBCO linker of the antibody; the heavy chain carries a chemical linker to CMP-003 on Lys K248 (Eu numbering) of the Fc; DAR 1

Kd [1]: 5410 nM
Kd [2]: 3340 nM
Kd [3]: 12 nM
Kd [4]: 27.1 nM
Kd [5]: 1870 nM
B2: CMP-028 (LZM-009 conjugated to CMP-003, DAR 1.9, K288) (antibody)
VH: B1 VH
VL: B1 VL
chain: B1 chain
modifications: not fully specified; Nle at 23, 39, 46 and Hse at 41, 71, 104 (as in SEQ ID NO: 3); ~0.5 kDa PEG on Y45; 0.5 kDa PEG on F42Y whose azide end is joined to the DBCO linker of the antibody; the heavy chain carries a chemical linker to CMP-003 on Lys K288 (Eu numbering) of the Fc; DAR 1.9

Kd [1]: 272 nM
Kd [2]: 6680 nM
Kd [3]: 2.3 nM
Kd [4]: 10.7 nM
Kd [5]: 1180 nM
B3: CMP-102 (LZM-009 conjugated to CMP-003, DAR 1, K288) (antibody)
VH: B1 VH
VL: B1 VL
chain: B1 chain
modifications: not fully specified; Nle at 23, 39, 46 and Hse at 41, 71, 104 (as in SEQ ID NO: 3); ~0.5 kDa PEG on Y45; 0.5 kDa PEG on F42Y whose azide end is joined to the DBCO linker of the antibody; the heavy chain carries a chemical linker to CMP-003 on Lys K288 (Eu numbering) of the Fc; DAR 1

Source: US20230201364A1
